Measured values as given in patent publication US20210238260A1 (published 2021).
Positions count from the first letter of the chain named. Names and notes keep the numbering of the source.

T1: Factor VIIIa (FVIIIa), from recombinant FVIII (Kogenate FS; Bayer healthcare) activated with alpha-thrombin (UniProt P00451 20-2351)
T1 sequence (looked up): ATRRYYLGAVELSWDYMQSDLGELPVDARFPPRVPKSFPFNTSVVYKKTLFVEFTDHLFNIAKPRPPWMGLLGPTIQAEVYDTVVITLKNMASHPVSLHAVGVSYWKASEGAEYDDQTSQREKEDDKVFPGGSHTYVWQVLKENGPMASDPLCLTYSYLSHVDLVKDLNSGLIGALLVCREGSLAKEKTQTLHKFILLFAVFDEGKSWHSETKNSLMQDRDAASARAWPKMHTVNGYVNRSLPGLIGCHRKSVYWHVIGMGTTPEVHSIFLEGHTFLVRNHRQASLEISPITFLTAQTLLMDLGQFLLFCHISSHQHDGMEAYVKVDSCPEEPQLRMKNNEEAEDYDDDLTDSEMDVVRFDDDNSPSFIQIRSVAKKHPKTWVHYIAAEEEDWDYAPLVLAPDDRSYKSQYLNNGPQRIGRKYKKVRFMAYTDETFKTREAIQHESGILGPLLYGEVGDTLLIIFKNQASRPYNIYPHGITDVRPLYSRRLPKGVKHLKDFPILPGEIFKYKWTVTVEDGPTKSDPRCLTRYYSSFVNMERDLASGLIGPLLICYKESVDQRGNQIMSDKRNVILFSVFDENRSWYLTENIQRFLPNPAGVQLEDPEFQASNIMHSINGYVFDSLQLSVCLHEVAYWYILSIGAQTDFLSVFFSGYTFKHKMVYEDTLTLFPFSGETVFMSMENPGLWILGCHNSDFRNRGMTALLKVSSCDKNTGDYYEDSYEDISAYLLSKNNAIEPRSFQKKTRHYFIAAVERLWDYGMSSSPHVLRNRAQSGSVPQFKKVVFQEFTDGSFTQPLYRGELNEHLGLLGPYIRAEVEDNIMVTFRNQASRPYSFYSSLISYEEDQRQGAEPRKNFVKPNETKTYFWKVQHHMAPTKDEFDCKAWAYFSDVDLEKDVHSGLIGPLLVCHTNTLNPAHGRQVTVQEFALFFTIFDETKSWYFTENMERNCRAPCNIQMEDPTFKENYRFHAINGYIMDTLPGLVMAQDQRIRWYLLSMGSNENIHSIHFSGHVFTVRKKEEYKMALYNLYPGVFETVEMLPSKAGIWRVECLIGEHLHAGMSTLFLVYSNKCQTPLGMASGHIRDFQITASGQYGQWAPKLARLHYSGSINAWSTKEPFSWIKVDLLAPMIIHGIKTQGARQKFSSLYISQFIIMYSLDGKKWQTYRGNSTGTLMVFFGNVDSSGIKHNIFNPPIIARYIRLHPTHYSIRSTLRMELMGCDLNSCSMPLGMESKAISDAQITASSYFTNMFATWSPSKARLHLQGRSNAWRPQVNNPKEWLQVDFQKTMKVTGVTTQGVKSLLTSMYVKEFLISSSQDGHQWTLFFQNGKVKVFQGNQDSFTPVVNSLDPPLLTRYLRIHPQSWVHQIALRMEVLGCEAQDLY

B1: FIXa-D104N/K106S/R318Y/R338E/E410N (enzyme)
chain 1: YNSGKLEEFVQGNLERECMEEKCSFEEAREVFENTERTTEFWKQYVDGDQCESNPCLNGGSCKDDINSYECWCPFGFEGKNCELDVTCNIKNGRCEQFCKNSANNSVVCSCTEGYRLAENQKSCEPAVPFPCGRVSVSQTSKLTR
chain 2: VVGGEDAKPGQFPWQVVLNGKVDAFCGGSIVNEKWIVTAAHCVETGVKITVVAGEHNIEETEHTEQKRNVIRIIPHHNYNAAINKYNHDIALLELDEPLVLNSYVTPICIADKEYTNIFLKFGSGYVSGWGRVFHKGYSALVLQYLRVPLVDRATCLESTKFTIYNNMFCAGFHEGGRDSCQGDSGGPHVTEVEGTSFLTGIISWGEECAMKGKYGIYTKVSRYVNWIKNKTKLT
notes: also called D104N/K106S/R318Y/E410N/R338E
B2: FIXa-D203N/F205T/E410N (enzyme)
chain 1: B1 chain 1 with N104D, S106K
chain 2: B1 chain 2 with D23N, F25T, Y138R, E158R
notes: also called D39N/F41T/E240N (chymotrypsin numbering)
B3: FIXa-D203N/F205T/R318Y (enzyme)
chain 1: B1 chain 1 with N104D, S106K
chain 2: B1 chain 2 with D23N, F25T, E158R, N230E
notes: also called D39N/F41T/R150Y (chymotrypsin numbering)
B4: FIXa-D203N/F205T/K228N (enzyme)
chain 1: B1 chain 1 with N104D, S106K
chain 2: B1 chain 2 with D23N, F25T, K48N, Y138R, E158R, N230E
notes: also called D39N/F41T/K63N (chymotrypsin numbering)
B5: FIXa-D203N/F205T/R338E/R403E (enzyme)
chain 1: B1 chain 1 with N104D, S106K
chain 2: B1 chain 2 with D23N, F25T, Y138R, R223E, N230E
notes: also called D39N/F41T/R170E/R233E (chymotrypsin numbering)
B6: FIXa-K228N/R318Y/E410N (enzyme)
chain 1: B1 chain 1 with N104D, S106K
chain 2: B1 chain 2 with K48N, E158R
notes: also called K63N/R150Y/E240N (chymotrypsin numbering)
B7: FIXa-K228N/R338E/R403E (enzyme)
chain 1: B1 chain 1 with N104D, S106K
chain 2: B1 chain 2 with K48N, Y138R, R223E, N230E
notes: also called K63N/R170E/R233E (chymotrypsin numbering)
B8: FIXa-R318Y/R403E/E410N (enzyme)
chain 1: B1 chain 1 with N104D, S106K
chain 2: B1 chain 2 with E158R, R223E
notes: also called R150Y/R233E/E240N (chymotrypsin numbering)
B9: FIXa-D203N/F205T/R338E (enzyme)
chain 1: B1 chain 1 with N104D, S106K
chain 2: B1 chain 2 with D23N, F25T, Y138R, N230E
notes: also called D39N/F41T/R170E (chymotrypsin numbering)
B10: FIXa-D203N/F205T/R338A (enzyme)
chain 1: B1 chain 1 with N104D, S106K
chain 2: B1 chain 2 with D23N, F25T, Y138R, E158A, N230E
notes: also called D39N/F41T/R170A (chymotrypsin numbering)
B11: FIXa variant R318Y/R338E/R403E/E410N/T412V (enzyme)
light: B1 chain 1 with N104D, S106K
heavy: B1 chain 2 with R223E, T232V
notes: also called R150Y/R170E/R233E/E240N/T242V
B12: FIXa variant R318Y/R338E/T343R/N346Y/R403E/E410N (enzyme)
light: B1 chain 1 with N104D, S106K
heavy: B1 chain 2 with T163R, N166Y, R223E
notes: also called R150Y/R170E/T175R/N178Y/R233E/E240N
B13: FIXa variant Y259F/K265T/Y345T (enzyme)
light: B1 chain 1 with N104D, S106K
heavy: B1 chain 2 with Y79F, K85T, Y138R, E158R, Y165T, N230E
notes: also called Y94F/K98T/Y177T
B14: FIXa variant R318Y/R338E/R403E/E410S (enzyme)
light: B1 chain 1 with N104D, S106K
heavy: B1 chain 2 with R223E, N230S
notes: also called R150Y/R170E/R233E/E240S
B15: FIXa variant Y155F/K228N/R318Y/R338E/R403E/E410N (enzyme)
light: B1 chain 1 with N104D, S106K
heavy: B1 chain 2 with K48N, R223E
B16: FIXa variant Y155F/K247N/N249S/N260S (enzyme)
light: B1 chain 1 with N104D, S106K
heavy: B1 chain 2 with K67N, N69S, N80S, Y138R, E158R, N230E
B17: FIXa variant R318Y/R338E/T343R/N346D/R403E/E410N (enzyme)
light: B1 chain 1 with N104D, S106K
heavy: B1 chain 2 with T163R, N166D, R223E
notes: also called R150Y/R170E/T175R/N178D/R233E/E240N
B18: FIXa variant Y155F/K247N/N249S/R318Y/R338E/E410N (enzyme)
light: B1 chain 1 with N104D, S106K
heavy: B1 chain 2 with K67N, N69S
B19: FIXa variant R318Y/R338E/T343R/R403E/E410N (enzyme)
light: B1 chain 1 with N104D, S106K
heavy: B1 chain 2 with T163R, R223E
notes: also called R150Y/R170E/T175R/R233E/E240N
B20: FIXa-D104N/K106S/Y155F/K228N/K247N/N249S (enzyme)
chain 1: B1 chain 1
chain 2: B1 chain 2 with K48N, K67N, N69S, Y138R, E158R, N230E
B21: FIXa-Y259F/K265T/Y345T (enzyme)
chain 1: B1 chain 1 with N104D, S106K
chain 2: B1 chain 2 with Y79F, K85T, Y138R, E158R, Y165T, N230E
notes: also called Y94F/K98T/Y177T
B22: FIXa-Y155F/N260S/R318Y/R338E/R403E/E410N (enzyme)
chain 1: B1 chain 1 with N104D, S106K
chain 2: B1 chain 2 with N80S, R223E
B23: FIXa-R318Y/R338E/E410N/T412V (enzyme)
chain 1: B1 chain 1 with N104D, S106K
chain 2: B1 chain 2 with T232V
notes: also called R150Y/R170E/E240N/T242V
B24: FIXa-R318Y/R338E/T412A (enzyme)
chain 1: B1 chain 1 with N104D, S106K
chain 2: B1 chain 2 with N230E, T232A
notes: also called R150Y/R170E/T242A
B25: FIXa-D104N/K106S/K228N/K247N/N249S (enzyme)
chain 1: B1 chain 1
chain 2: B1 chain 2 with K48N, K67N, N69S, Y138R, E158R, N230E
B26: FIXa-K247N/N249S/R318Y/R338E/R403E/E410N (enzyme)
chain 1: B1 chain 1 with N104D, S106K
chain 2: B1 chain 2 with K67N, N69S, R223E
notes: also called K82N/N84S/R150Y/R170E/R233E/E240N
B27: FIXa-I251S/R318Y/R338E/E410N (enzyme)
chain 1: B1 chain 1 with N104D, S106K
chain 2: B1 chain 2 with I71S
notes: also called I86S/R150Y/R170E/E240N; I251S/R318Y/E410N/R338E
B28: FIXa-D104N/K106S/I251S/R318Y/R338E/E410N (enzyme)
chain 1: B1 chain 1
chain 2: B1 chain 2 with I71S
B29: FIXa-K247N/N249S/R318Y/R338E/E410N (enzyme)
chain 1: B1 chain 1 with N104D, S106K
chain 2: B1 chain 2 with K67N, N69S
notes: also called K82N/N84S/R150Y/R170E/E240N
B30: FIXa-A103N/N105S/K247N/N249S/R318Y/R338E/R403E/E410N (enzyme)
chain 1: B1 chain 1 with A103N, N104D, N105S, S106K
chain 2: B1 chain 2 with K67N, N69S, R223E
B31: FIXa-Y155F/K247N/N249S/R318Y/R338E/E410N (enzyme)
chain 1: B1 chain 1 with N104D, S106K
chain 2: B1 chain 2 with K67N, N69S
B32: FIXa-R318Y/R338E/E410S (enzyme)
chain 1: B1 chain 1 with N104D, S106K
chain 2: B1 chain 2 with N230S
notes: also called R150Y/R170E/E240S

Each binder was assayed against T2, antithrombin III (plasma purified human AT-III), used as the AT-III/unfractionated heparin complex (human, UniProt P01008 33-464) (assay: K0.5: AT-III/UFH titrated against FIXa, 10 s, residual cleavage of Mesyl-D-CHG-Gly-Arg-AMC).
T2 construct: also called AT-III/UFH

Binder	IC50 [nM]
B1	6330
B2	377
B3	7230
B4	822
B5	1520
B6	475
B7	1680
B8	7070
B9	1170
B10	423

The binders below were run against T1, Factor VIIIa (FVIIIa), from recombinant … (assay: ratio of KD-app of Catalyst Biosciences WT FIXa to KD-app of the variant, same Xase assay).
Description: (§1) The activity of alpha-thrombin was then quenched by the addition of a highly specific thrombin inhibitor, hirudin, prior to initiating the assay.

Binder	KD-WT/KD-mut [fold]
B11	1.7
B12	6.1
B13	0.8
B14	1.8
B15	3.1
B16	0.6
B17	1.3
B18	12.8
B19	6.6

These binders were tested against T3, plasma purified human AT-III (antithrombin III) (human, UniProt P01008 33-464) (assay: K0.5: AT-III/UFH titrated on FIXa, residual activity on fluorogenic substrate).
T3 construct: also called AT-III/UFH (in complex with unfractionated heparin)

Binder	IC50 [nM]
B20	32
B21	6
B22	9700
B23	4870
B24	7660
B25	41
B26	8080
B27	5860
B28	8980
B29	1510
B30	2500
B31	3880
B32	5400

The binders below were run against T1, Factor VIIIa (FVIIIa), from recombinant … (assay: apparent functional KD (KD-app): FX activation rate vs FVIIIa titration, fluorogenic Xase assay with PC/PS vesicles and Ca2+).
Description: as §1

Binder	Kd [nM]
B11	55
B12	15.6
B13	115
B14	53.1
B15	31.2
B16	167
B17	76.2
B18	7.4
B19	14.5
